Assay results published in CN117964771A (ZHIZE TONGKANG GUANGZHOU BIOTECHNOLOGY CO LTD, dated 2024).

Molecular target: T1, 人基质金属蛋白酶7(hMMP7)重组蛋白 (human, UniProt P09237 18-267, limits assumed)
T1 construct: Recombinant protein made according to UniProt P09237; also called MMP7抗原; MMP7蛋白
T1 sequence (looked up): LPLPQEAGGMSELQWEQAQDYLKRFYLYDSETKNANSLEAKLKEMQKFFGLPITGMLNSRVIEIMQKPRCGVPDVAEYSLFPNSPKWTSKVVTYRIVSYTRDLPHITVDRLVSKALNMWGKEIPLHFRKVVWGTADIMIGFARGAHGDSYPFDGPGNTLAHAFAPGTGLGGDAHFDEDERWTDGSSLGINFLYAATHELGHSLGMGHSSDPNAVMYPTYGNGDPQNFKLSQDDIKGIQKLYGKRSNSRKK
Assay: SPR, labelled MMP7 immobilised on chip, antibody as analyte (100 nM, 2-fold dilutions), 1:1 Langmuir model

- Kd: < 1 nM
B1: MMP7单克隆抗体M4 (antibody, mouse IgG1, kappa, V domains shown)
VH: QVQLQQSGAELMKPGASVKLSCKASGYTFTSYYMYWVKQRPGQGLEWIGEINPSNADTEFNEKFKSKATLTVDKSSSTAYMQLSSLTSEDSAVYYCTRWPLYGAMDYWGQGTSVTVSS
VL: DVQITQSPSYLAASPGETITINCRASKSISKYLAWYQEKPGKTNKLLIYSGHWLQSGIPSRFSGSGSGSDFTLTISSLEPEDFAMYYCQQHFEYPWTFGAGTKLELKR
